Laboratory results as given in patent US20170267727A1, “Conjugates of pH Low Insertion Peptide and Monomethyl Auristatins in the Treatment of Solid Tumors” (Lehigh University, priority 2016, published 2017).
“Also recorded” adds a separate entry of the source. Positions of bridges follow the written chain, without caps; N, C: chain ends. Non-standard residues stand in square brackets, D forms with d. Chains are numbered I, II in the order given. *: point of attachment. Dolaproine = CO[C@@H]([C@@H]1CCCN1)[C@@H](C)C(=O)O; Dil = CC[C@H](C)[C@H](NC)[C@@H](CC(=O)O)OC; X1 = C[C@@H](N*)[C@@H](O)c1ccccc1; NMeV = CN[C@H](C(=O)O)C(C)C; Mpa = O=C(O)CCS

Key:
[1] = Construct Stability HPLC in Mouse Serum; assay type: in vitro ADME; details: 37° C., 48 h
Experimental: (§1) FIG. 8A, FIG. 8B, and FIG. 8C show Purity check and Chemical stability of pHLIP-MMAE conjugates. (FIG. 8A) and (FIG. 8B): HPLC traces of pHLIP(WT)-MMAE and pHLIP(D25E)-MMAE, respectively: Purified conjugates (upper panels), 10 μM of conjugate in cell media (middle panels) and after incubation in cell media for 2 h at pH 5.0 and 37° C. (lower panels). The small peak observed around 27 min in (FIG. 8B) upper panel corresponds to some residual free pHLIP (<15%), which is known to not be cytotoxic (FIG. 7). (FIG. 8C) HPLC traces of Alexa750-pHLIP(WT)-MMAE: Purified conjugate (upper panel), 10 μM Alexa 750-pHLIP(WT)-MMAE before (upper panel) and after 48 h incubation in mouse serum at 37° C. (lower panel). Purity checks and chemical stability runs were performed on different column and with different flow rate, explaining the difference in retention times and peak broadness (see Experimental Section). […]
(§2) Peptide solutions were incubated at either pH 7.4 or pH 5.0 (37° C. and 5% CO2) and 100 μL aliquots were monitored via RP-HPLC at various time points (Agilent Eclipse XDB-C18 […] 9.4×250 mm; flow rate 2 mL/min; phase A: water 0.01% TFA; phase B: acetonitrile 0.01% TFA; gradient 45 min from 95/5 A/B to 0/100 A/B). […] The stability of Alexa750-pHLIP(WT)-MMAE was determined in mouse serum by solubilizing the construct to incubating it at 37° C. and monitoring via RP-HPLC at specific time points.

[2] = Construct Stability HPLC in Cell Media; assay type: physicochemical; details: 10 μM, 2 h at pH 5.0 and 37° C.
Experimental: as §1, §2

[3] = test system: HeLa cells; test: Anti-proliferation Assay (2 hours treatment at pH 7.4 or 5.0, 72 hours growth, MTT)
Experimental: FIG. 3A, FIG. 3C and FIG. 3E show HeLa cells treated with pHLIP(WT)-MMAE, pHLIP(D25E)-MMAE, and MMAE(linker), respectively. FIG. 3B, FIG. 3D and FIG. 3F show MDA-MB-231 cells treated with pHLIP(WT)-MMAE, pHLIP(D25E)-MMAE, and MMAE(linker), respectively. Black columns represent cells treated at pH 7.4 and cells treated at low pH are shown in grey. For each condition, 3,000 cells/well (96-well plate) were seeded, allowed to adhere overnight, treated for 2 hours, washed once with media and grown for 72 hour in complete medium at physiologic pH. Cell viability was assessed with the MTT assay. All measurements were normalized to the media control (0 μM, pH 7.4), as 100% cell viability. Results are shown as mean±SD (n=6-9).
HeLa cells treated with pHLIP(WT)-MMAF (FIG. 9A), pHLIP(D25E)-MMAF (FIG. 9B), pHLIP(P20G)-MMAF (FIG. 9C), and pHLIP(R11Q)-MMAF (FIG. 9D). Circles represent cells treated at pH 7.4 and squares represent cells treated at pH 5.0. Results are shown as the mean±SEM (n=6-9).
Anti-proliferation Assay. HeLa and MDA-MB-231 cells were seeded in 96-well plates at a density of 3,000 cells/well and incubated overnight. Before treatment, construct aliquots were solubilized in an appropriate volume of DMEM without FBS (pH 7.4)—so that upon pH adjustment the desired treatment concentration is obtained—and gently sonicated for 30-60 seconds using a bath sonicator (Branson Ultrasonics). After removal of cell media, this treatment solution was added to each well and incubated at 37° C. for 5-10 minutes. The pH was then adjusted to the desired value using a pre-established volume of DMEM, pH 2.0 buffered with citric acid (final volume=50 μL) and the plate was incubated at 37° C. for 2 hours. After treatment, the media was removed, cells were washed once with 100 μL of complete DMEM, and 100 μL of complete medium was added to each well before returning the plate to the incubator. Treatment solutions were collected and their pH values measured using a micro-combination pH probe (Microelectrodes, Inc.). […] Cell viability was determined after 72 hours using the colorimetric MTT assay. Briefly, 10 μL of a 5 mg/mL MTT stock solution was added to the treated cells and incubated for 2 hours at 37° C. The resulting formazan crystals were solubilized in 200 μL DMSO and the absorbance measured at 580 nm using an Infinite 200 PRO microplate reader (Tecan). Cell viability was calculated against control cells treated with media at physiologic pH.
Inhibition of Cell Proliferation. The ability of pHLIP to move MMAE across the cell membrane and to inhibit cancer cell proliferation in concentration and pH-dependent manners was evaluated. Cell treatments for both pHLIP(WT)-MMAE and pHLIP(D25E)-MMAE constructs were carried out with conjugate concentrations ranging from 1.25 to 10 μM at either pH 7.4 or 5.0. After a 2-hour incubation at 37° C., the treatment media was replaced by fresh media, and cells were grown for an additional 72 hours at normal pH before assessing cell viability using the MTT assay. […] This treatment protocol is quite stringent when compared to the typical multi-days exposure treatments used with free drugs (FIG. 6A and FIG. 6B).

For “I: H-AAEQNPIYWARYADWLFTTPLLLLDLALLVDADEGTCG-OH / II: [Mpa][NMeV]V[Dil][Dolaproine]-X1 (disulfide I:37-II:1) [pHLIP(WT)-MMAE]”, the stability in serum [1] was “stable in serum”, the “degradation in cell media by HPLC or mass spectroscopy” value [2] was “No significant degradation; also recorded: no degradation products are observed” and the “effect on cell proliferation” value ([3]; pH 7.4, same conditions (1.25 to 10 μM)) was “no or a moderate effect on cell proliferation”. The cytotoxicity ([3]; physiological pH, 5 μM) was “only marginal cytotoxicity”.

In the case of “I: H-AAEQNPIYWARYADWLFTTPLLLLELALLVDADEGTCG-NH2 / II: [Mpa][NMeV]V[Dil][Dolaproine]-X1 (disulfide I:37-II:1) [pHLIP(D25E)-MMAE]”, the “degradation in cell media by HPLC or mass spectroscopy” value [2] is reported as “No significant degradation; also recorded: no degradation products are observed”.
